Reference: patent publication US20110256557A1, “IDENTIFYING PARATHYROID HORMONE AGONISTS AND ANTAGONISTS” (DISCOVERYBIOMED, INC., priority 2008, published 2011)

T1: PTH1R (Homo sapiens, UniProt Q03431)
T1 sequence (Q03431 27-593): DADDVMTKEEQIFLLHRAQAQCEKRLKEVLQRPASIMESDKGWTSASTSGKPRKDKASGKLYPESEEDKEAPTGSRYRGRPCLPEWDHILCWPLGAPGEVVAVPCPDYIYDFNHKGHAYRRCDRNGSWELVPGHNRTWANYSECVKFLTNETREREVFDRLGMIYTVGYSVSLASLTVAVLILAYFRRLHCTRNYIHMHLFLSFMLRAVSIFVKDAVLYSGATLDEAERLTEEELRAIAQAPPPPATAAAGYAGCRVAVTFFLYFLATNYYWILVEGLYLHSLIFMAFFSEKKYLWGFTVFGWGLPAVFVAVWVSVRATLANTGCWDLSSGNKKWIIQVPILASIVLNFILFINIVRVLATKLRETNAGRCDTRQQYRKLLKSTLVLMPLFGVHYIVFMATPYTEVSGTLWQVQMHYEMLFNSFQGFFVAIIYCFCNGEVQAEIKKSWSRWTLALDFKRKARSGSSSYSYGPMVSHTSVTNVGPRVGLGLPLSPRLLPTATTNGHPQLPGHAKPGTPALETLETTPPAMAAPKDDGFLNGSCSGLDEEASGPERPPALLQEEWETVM

B1: DKK1: secreted protein binding to LRP6 at the extracellular domain (protein, UniProt O94907 32-266, looked up)
Dickkopf-related protein 1: TLNSVLNSNAIKNLPPPLGGAAGHPGSAVSAAPGILYPGGNKYQTIDNYQPYPCAEDEECGTDEYCASPTRGGDAGVQICLACRKRRKRCMRHAMCCPGNYCKNGICVSSDQNHFRGEIEETITESFGNDHSTLDGYSRRTTLSSKMYHTKGQEGSVCLRSSDCASGLCCARHFWSKICKPVLKEGQVCTKHRRKGSHGLEIFQRCYCGEGLSCRIQKDHHQASNSSRLHTCQRH
B2: LRP6T+C: truncated LRP6 containing the transmembrane and intracellular domains, tagged with VSVG (protein)
chain: TNTVGSVIGVIVTIFVSGTVYFICQRMLCPRMKGDGETMTNDYVVHGPASVPLGYVPHPSSLSGSLPGMSRGKSMISSLSIMGGSSGPPYDRAHVTGASSSSSSSTKGTYFPAILNPPPSPATERSHYTMEFGYSSNSPSTHRSYSYRPYSYRHFAPPTTPCSTDVCDSDYAPSRRMTSVATAKGYTSDLNYDSEPVPPPPTPRSQYLSAEENYESCPPSPYTERSYSHHLYPPPPSPCTDSS
modifications: left off: small tags and cut ends
notes: truncated LRP6 containing the transmembrane and intracellular domains, tagged with VSVG
B3: sclerostin: secreted protein binding to LRP6 at the extracellular domain (protein, UniProt Q9BQB4 24-213, looked up)
Sclerostin: QGWQAFKNDATEIIPELGEYPEPPPELENNKTMNRAENGGRPPHHPFETKDVSEYSCRELHFTRYVTDGPCRSAKPVTELVCSGQCGPARLLPNAIGRGKWWRPSGPDFRCIPDRYRAQRVQLLCPGGEAPRARKVRLVASCKCKRLTRFHNQSELKDFGTEAARPQKGRKPRPRARSAKANQAELENAY
B4: LRP6N+T: truncated LRP6 containing the extracellular and transmembrane domains, tagged with VSVG (protein)
chain: APLLLYANRRDLRLVDATNGKENATIVVGGLEDAAAVDFVFSHGLIYWSDVSEEAIKRTEFNKTESVQNVVVSGLLSPDGLACDWLGEKLYWTDSETNRIEVSNLDGSLRKVLFWQELDQPRAIALDPSSGFMYWTDWGEVPKIERAGMDGSSRFIIINSEIYWPNGLTLDYEEQKLYWADAKLNFIHKSNLDGTNRQAVVKGSLPHPFALTLFEDILYWTDWSTHSILACNKYTGEGLREIHSDIFSPMDIHAFSQQRQPNATNPCGIDNGGCSHLCLMSPVKPFYQCACPTGVKLLENGKTCKDGATELLLLARRTDLRRISLDTPDFTDIVLQLEDIRHAIAIDYDPVEGYIYWTDDEVRAIRRSFIDGSGSQFVVTAQIAHPDGIAVDWVARNLYWTDTGTDRIEVTRLNGTMRKILISEDLEEPRAIVLDPMVGYMYWTDWGEIPKIERAALDGSDRVVLVNTSLGWPNGLALDYDEGKIYWGDAKTDKIEVMNTDGTGRRVLVEDKIPHIFGFTLLGDYVYWTDWQRRSIERVHKRSAEREVIIDQLPDLMGLKATNVHRVIGSNPCAEENGGCSHLCLYRPQGLRCACPIGFELISDMKTCIVPEAFLLFSRRADIRRISLETNNNNVAIPLTGVKEASALDFDVTDNRIYWTDISLKTISRAFMNGSALEHVVEFGLDYPEGMAVDWLGKNLYWADTGTNRIEVSKLDGQHRQVLVWKDLDSPRALALDPAEGFMYWTEWGGKPKIDRAAMDGSERTTLVPNVGRANGLTIDYAKRRLYWTDLDTNLIESSNMLGLNREVIADDLPHPFGLTQYQDYIYWTDWSRRSIERANKTSGQNRTIIQGHLDYVMDILVFHSSRQSGWNECASSNGHCSHLCLAVPVGGFVCGCPAHYSLNADNRTCSAPTTFLLFSQKSAINRMVIDEQQSPDIILPIHSLRNVRAIDYDPLDKQLYWIDSRQNMIRKAQEDGSQGFTVVVSSVPSQNLEIQPYDLSIDIYSRYIYWTCEATNVINVTRLDGRSVGVVLKGEQDRPRAVVVNPEKGYMYFTNLQERSPKIERAALDGTEREVLFFSGLSKPIALALDSRLGKLFWADSDLRRIESSDLSGANRIVLEDSNILQPVGLTVFENWLYWIDKQQQMIEKIDMTGREGRTKVQARIAQLSDIHAVKELNLQEYRQHPCAQDNGGCSHICLVKGDGTTRCSCPMHLVLLQDELSCGEPPTCSPQQFTCFTGEIDCIPVAWRCDGFTECEDHSDELNCPVCSESQFQCASGQCIDGALRCNGDANCQDKSDEKNCEVLCLIDQFRCANGQCIGKHKKCDHNVDCSDKSDELDCYPTEEPAPQATNTVGSVIGVIVTIFVSGTVYFI
modifications: left off: small tags and cut ends
notes: truncated LRP6 containing the extracellular and transmembrane domains, tagged with VSVG

What was measured:
β-catenin in osteoblasts = assay: Immunohistochemistry of β-catenin in bone sections after single-dose injection, rats; format: in vivo, rat; conditions: for positive staining of β-catenin in osteoblasts: five month-old rats, single i.v. dose 40 μg/kg, 8 hours after injection
Protocol: For the experiments in which rats or mice were administered PTH as single-dose injection, five-month-old male Sprague Dawley rats (Charles River Laboratories; Wilmington, Mass.) or two-month-old male C57BL/J6 mice (Jackson Laboratory; Bar Harbor, Me.) (6 per group) were administered a single dose of either vehicle (1 mM acetic acid in sterile PBS) or PTH (1-34) (Bachem Inc.; Torrance, Calif.) at 40 μg/kg in a volume of 100 μl. In the mouse model, mouse recombinant Wnt3a (R&D Systems; Minneapolis, Minn.) was injected at 25 μg/kg in a volume of 100 μl. All treatments were through bolus intravenous injection via the tail vein. Rats/mice were sacrificed at 0.5, 2, 8 and 24 hours after injection.
Formalin-fixed femur or tibia tissue sections of 5 μm thickness from rats or mice were processed with antigen retrieval and hydrogen peroxide treatment prior to incubation with primary monoclonal antibody specific for β-catenin (BD Biosciences; San Jose, Calif.), goat polyclonal antibody sclerostin (R&D Systems; Minneapolis, Minn.) or rabbit polyclonal phosphorylated LRP6 (Ab1490) for 1 hour at room temperature or overnight at 4° C. Negative controls were obtained by replacing the primary antibodies with irrelevant control isotype IgG. […] In the rat model, numbers of total osteoblasts and numbers of β-catenin- or p-LRP6-positive osteoblasts were counted in three random high power fields at metaphysis subjacent to the epiphyseal growth plates or the diaphyseal hematopoietic bone marrow per specimen, and a total of six specimens in each group were used. In the mouse model, numbers of total osteoblasts and numbers of β-catenin-positive osteoblasts were counted in three random high power fields in a 2-mm square, 1 mm distal to the lowest point of the growth plate in the secondary spongiosa. Numbers of total osteocytes and numbers of sclerostin-positive osteocytes were counted in three random high power fields per trabecular bone section or cortical bone section, and a total of six specimens in each group were used.

β-catenin = assay: Western blot of cytosolic β-catenin in HEK 293 cells; format: cell-based; conditions: for effect on PTH-elevated β-catenin level (accumulation in cytosol/cytoplasm): PTH-treated cells (FIG. 5 cells not stated; FIG. 10, 27 HEK293)
Protocol: (§1) Cells were harvested in cavitation buffer (5 mM HEPES, pH 7.4, 3 mM MgCl2, 1 mM EGTA, 250 mM sucrose) containing protease and phosphatase inhibitors and homogenized by nitrogen cavitation (200 p.s.i., for 5 minutes) in a cell disruption bomb (Parr Instrument Co.; Moline, Ill.). The cell homogenate was centrifuged twice at 700 g for 10 minutes to pellet the nuclei. The supernatant was further centrifuged at 100,000 g (Beckman SW50.1 rotor) for 1 hour to separate the membrane and cytosol fractions, and the resulting membrane pellet was washed three times with cavitation buffer before use in the assays (Zhang et al., Biochem. J. 343:541-9 (1999)). Immunoprecipitation and Western blot analysis of cell lysates were performed as described previously (Wan et al., Am. J. Pathol. 166:1379-92 (2005)).

[1] = tested on: luciferase reporter bearing TCF/LEF binding elements; assay: TCF/LEF luciferase reporter assay in UMR-106 cells; format: cell-based, rat; conditions: UMR-106 cells treated with PTH
From the text: HEK293, UMR-106 and mouse embryonic fibroblast (MEF) cells were maintained in Dulbecco's Modified Eagle Medium (DMEM) with 10% Fetal Calf Serum (FCS). Mouse Wnt3a conditioned medium (Wnt3a CM) was produced from mouse L cells stably transfected with mouse Wnt3a (American Type Culture Collection; Manassas, Va.) and control conditioned medium (Control CM) was from non-transfected L cells. IgG, LRP6N-IgG, DKK1, Sclerostin, VSVG-LRP6N and Myc-Fz8CRD conditioned media were produced from HEK 293 cells transfected with the individual plasmids. Transfections were carried out using lipofectamine reagent (Invitrogen; Carlsbad, Calif.). Luciferase assays were carried out in either UMR-106 or HEK 293 cells as described previously (Wan et al., Am. J. Pathol. 166:1379-92 (2005)), with 0.3 μg of TCF-Luc reporter plasmid plus 50 ng of Renilla luciferase plasmid (internal control) per well in the 12-well plate. Experiments were repeated at least three times with triplicate for each experiment.

PTH1R = molecular target: T1, PTH1R; assay: Co-immunoprecipitation of exogenous LRP5/LRP6 constructs with PTH1R in HEK293 cells; format: cell-based; conditions: co-expressed with PTH1R in HEK293 cells
From the text: PTH1R tagged with HA was subcloned into pcDNA3.1. cDNAs from human LRP5 (Mao et al., Mol. Cell. 7:801-9 (2001)) and LRP6 (Tamai et al., Nature 407:530-35 (2000)) tagged with HA and VSVG were subcloned into pCMV and pCS2^+, respectively. LRP6N+T (LRP6 N-terminal plus the transmembrane domain) and LRP6T+C (LRP6 transmembrane domain plus C-terminal) tagged with VSVG were subcloned into pCS2^+. LRP6N+1479m, LRP6N+1490m, LRP6N+1493m and LRP6N+1496m were generated by mutagenesis of either the serine (at amino acid 1490 or amino acid 1496) or threonine (at amino acid 1479 or amino acid 1493) to alanine LRP6N-IgG was generated by fusing the LRP6 extracellular domain with IgG (Tamai et al., Nature 407:530-35 (2000)). si-GFP (Wan et al., Am. J. Pathol. 166:1379-92 (2005)) and si-LRP6 plasmids were generated using a BS/U6 vector. Briefly, a 22-nucleotide oligo (oligo 1) corresponding to nucleotides 2981 to 3002 of the human LRP6 coding region was first inserted into the BS/U6 vector digested with ApaI (blunted) and HindIII. The inverted motif that contains the six-nucleotide spacer and five Ts (oligo 2) was then subcloned into the HindIII and EcoRI sites of the intermediate plasmid to generate BS/U6/LRP5/6.
as §1

Row | Molecule | effect on PTH-elevated β-catenin level (accumulation in cytosol/cytoplasm) (β-catenin) | effect on PTH-stimulated TCF/LEF luciferase (transcriptional) activity [1] | binding of LRP6 construct to PTH1R (IP assay) (PTH1R) | further results
1 | PTH (1-34): C-terminal-truncated synthetic analog of PTH with an anabolic effect on bone formation in humans (SVSEIQLMHNLGKHLNSMERVEWLRKKLQDVHNF; Parathyroid hormone; UniProt P01270 32-65, looked up, fragment) |  |  |  | positive staining of β-catenin in osteoblasts (β-catenin in osteoblasts; diaphyseal bone marrow): about 90.24±0.68%; positive staining of β-catenin in osteoblasts (β-catenin in osteoblasts; metaphysis subjacent to the epiphyseal growth plates): 99.08±0.57%; expression of β-catenin in preosteoblasts and osteoblasts on the bone surface (β-catenin in osteoblasts; rats, single dose, trabecular bone, within hours): induced
2 | B1 | disrupted | disrupted |  | effect on Wnt3a-elevated β-catenin level (β-catenin; Wnt3a-treated cells (FIG. 5 cells not stated; FIG. 27 HEK293)): reduced
3 | B2 |  |  | could barely be detected | 
4 | B3 | disrupted | disrupted |  | 
5 | B4 |  |  | associated with PTH1R as effectively as did full-length LRP6 | 
